Literature values as cited in US11707610B2, “Ingestible device for delivery of therapeutic agent to the gastrointestinal tract” (BIORA THERAPEUTICS, INC., priority 2019, dated 2023).
Read-outs that look alike come from different tables or passages of the source.

Tests used:
[1] = self-administration of 360,000 units, medical observation
[2] = for bioavailability: by SC injection; for Approved Dosing Info: Bio Avail: Table 16, approved injection, Admin SC

Substance: Dalteparin
- outcome of overdose [1]: no notable sequelae
- stability at room temperature (room temperature): stable
- bioavailability [2]: approximately 87%
- primary mode of elimination ([2]; in vivo): kidneys

Substance: Human Growth Hormone [Genotropin ®]
- Storage temperature: time after reconstitution (2-8° C., after reconstitution): 2-8 °C 4 weeks

Substance: adalimumab
- Approved Dosing Info: Bio Avail [2]: 64%
- bioavailability [2]: 64%
- bioavailability ([2]; listed as Adalimumab): approximately 64%
- half-life ([2]; in vivo): approximately 2 weeks
- primary mode of elimination ([2]; in vivo): intracellular catabolism

Substance: certolizumab-pegol [Cimzia ®]
- Storage temperature: time at room temp (room temp): 2 hrs at

Substance: etanerecpt [Embrel ®]
- Storage temperature: time at 25° C. (25° C.): 14 days

Substance: infliximab [Remicade ®]
- Storage temperature: time at 30° C. (30° C.): to 12 months

Substance: semaglutide [compound 4]
- Approved Dosing Info: Bio Avail [2]: 89%
